Measurements from publication PMC10435522, “Molecular insights into recognition of GUCY2C by T-cell engaging bispecific antibody anti-GUCY2CxCD3” (Scientific Reports, 2023).

T1: GUCY2C ECD peptide 19 (68-NSGDCRSSTCEGLDLLRKIS-87) (human)
T1 construct: human GUCY2C residues 68-87; numbers count on: the mature protein (91-110 of P25092); In the crystal the peptide holds the disulfide bond Cys72-Cys77; also called GUCY2C-peptide; 68GUCY2C-peptide87; source: synthetic peptide (New England Peptide arrays for the DELFIA; chemically synthesized for the crystal)
T1 chain: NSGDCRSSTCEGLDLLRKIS

B1: anti-GUCY2C single chain Fv (aGUCY2C-scFv) fragment of PF-07062119 (scFv, V domains shown)
VH: EVQLVESGGGLVQPGGSLRLSCAASGFTFSSYWMHWVRQAPGKGLEWIGEIKPSNELTNVHEKFKDRFTISVDKAKNSAYLQMNSLRAEDTAVYYCTRTITTTEGYWFFDVWGQGTLVTVSS
VL: DIQLTQSPSSLSASVGDRVTITCRASESVDYYGSSLLQWYQQKPGKAPKLLIYAASKLASGVPSRFSGSGSGTDFTLTISSLQPEDFATYYCQQTRKAYTFGQGTKLEIK
notes: Fc removed with AcTEV protease; also called anti-GUCY2C-scFv; source: Expi293F, transfected (with kifunensine), purified (MAb Select Sure, Superdex 200 SEC, TEV cleavage); not shown: Fc, C-terminal, cleaved
B2: GUCY2C-1608 (IgG version of PF-07062119) (antibody, V domains shown)
VH: B1 VH
VL: B1 VL
notes: as the VH in aGUCY2C-scFv; as the VL in aGUCY2C-scFv; IgG detected with an anti-human IgG secondary antibody; also called GUGY2C-1608; Ab GUCY2C-1608

Target: PF-07062119, anti-GUCY2CxCD3 bispecific antibody
Assay: flow cytometry of yeast-displayed GUCY2C ECD
Conditions: 2 independent experiments, triplicate samples; parent: est. 36; read off a plot

| Molecule | response |
| --- | --- |
| human GUCY2C ECD displayed on yeast (CID1814) (from UniProt P25092) R84K | 48 |
| human GUCY2C ECD displayed on yeast (CID1814) (from UniProt P25092) S74T | 41 |
| human GUCY2C ECD displayed on yeast (CID1814) (from UniProt P25092) S87F | 32 |
| human GUCY2C ECD displayed on yeast (CID1814) (from UniProt P25092) L83I | 28 |
| human GUCY2C ECD displayed on yeast (CID1814) (from UniProt P25092) S15N | 21 |
| human GUCY2C ECD displayed on yeast (CID1814) (from UniProt P25092) I66L | 34 |
| human GUCY2C ECD displayed on yeast (CID1814) (from UniProt P25092) D81E | 33 |
| human GUCY2C ECD displayed on yeast (CID1814) (from UniProt P25092) S62F | 30 |
| human GUCY2C ECD displayed on yeast (CID1814) (from UniProt P25092) K85Q | 50 |

Same assay, conditions: 2 independent experiments, triplicate samples; parent: est. 130; read off a plot

| response | Molecule |
| --- | --- |
| 43 | human GUCY2C ECD displayed on yeast (CID1814) (from UniProt P25092) N21D; A23D; D71G |
| 150 | human GUCY2C ECD displayed on yeast (CID1814) (from UniProt P25092) human 207-217 substituted with chicken residues 205-215 |
| 140 | human GUCY2C ECD displayed on yeast (CID1814) (from UniProt P25092) human 172-178 substituted with chicken residues 170-176 |
| 220 | human GUCY2C ECD displayed on yeast (CID1814) (from UniProt P25092) Q210R; E230A; D238T; E259R |
| 110 | human GUCY2C ECD displayed on yeast (CID1814) (from UniProt P25092) human 238-243 substituted with chicken residues 236-241 |
| 96 | human GUCY2C ECD displayed on yeast (CID1814) (from UniProt P25092) S163T; G403S |
| 160 | human GUCY2C ECD displayed on yeast (CID1814) (from UniProt P25092) human 198-206 substituted with chicken residues 196-204 |
| 80 | human GUCY2C ECD displayed on yeast (CID1814) (from UniProt P25092) human 259-269 substituted with chicken residues 257-267 |
| 37 | human GUCY2C ECD displayed on yeast (CID1814) (from UniProt P25092) human 153-166 substituted with chicken residues 151-164 |
| 97 | human GUCY2C ECD displayed on yeast (CID1814) (from UniProt P25092) Y109V; T133N |
| 65 | human GUCY2C ECD displayed on yeast (CID1814) (from UniProt P25092) human 363-376 substituted with chicken residues 361-374 |
| 110 | human GUCY2C ECD displayed on yeast (CID1814) (from UniProt P25092) A331E; L335I |

Same assay, conditions: 2 independent experiments, triplicate samples; read off a plot

| Molecule | response |
| --- | --- |
| chicken GUCY2C ECD displayed on yeast (CID1818) (from UniProt E1BZE2) chicken residues 70-84 replaced by human 73-87 | 11 |
| chicken GUCY2C ECD displayed on yeast (CID1818) (from UniProt E1BZE2) chicken residues 71-89 replaced by human 74-92 | 14 |

Target: T1, GUCY2C ECD peptide 19 …
Assay: crystal structure; aGUCY2C-scFv with GUCY2C-peptide 68-87, complex formed at 1:1.2 molar ratio; 1.6 A; two complexes in the asymmetric unit
Conditions: both partners purified

| binding result | Molecule |
| --- | --- |
| binds | B1 |

Target: T2, human GUCY2C ECD, purified (from HuGUCY2C_ECD_TEV_muIgG2amutFc_Flag) (human, UniProt P25092)
T2 construct: human GUCY2C extracellular domain, residues 1-407; numbers count on: the mature protein (24-430 of P25092); For the crystal the complex with the scFv was treated with endoglycosidase H. The limits 1-407 are stated for the crystallised ECD; also called full GUCY2C ECD; full length GUCY2C-ECD; source: Expi293F, transfected (with kifunensine), purified (MAb Select Sure, Superdex 200 SEC, TEV …)
Assay: crystal structure; aGUCY2C-scFv with GUCY2C-ECD (1-407), mixed at 1.2:1, treated with endoglycosidase H, purified by SEC; 3.52 A; one complex in the asymmetric unit
Conditions: both partners purified

T2 sequence (P25092 24-407): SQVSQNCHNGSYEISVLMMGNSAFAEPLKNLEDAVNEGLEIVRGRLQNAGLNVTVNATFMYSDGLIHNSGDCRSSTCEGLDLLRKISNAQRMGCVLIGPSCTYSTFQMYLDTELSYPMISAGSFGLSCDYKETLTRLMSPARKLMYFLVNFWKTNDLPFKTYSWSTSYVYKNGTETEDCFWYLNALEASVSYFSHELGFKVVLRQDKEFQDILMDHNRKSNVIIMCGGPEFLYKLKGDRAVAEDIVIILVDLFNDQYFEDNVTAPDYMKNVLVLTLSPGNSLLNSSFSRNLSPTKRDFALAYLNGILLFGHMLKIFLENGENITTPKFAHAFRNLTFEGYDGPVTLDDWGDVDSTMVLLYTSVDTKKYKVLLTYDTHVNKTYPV

| binding result | Molecule |
| --- | --- |
| binds | B1 |

Target: T1, GUCY2C ECD peptide 19 …
Assay: ELISA; DELFIA competition ELISA; human GUCY2C ECD coated at 1 ug/ml; GUCY2C-1608 at EC80 mixed with peptide 19 serially diluted 1:3 from 10 ug/ml; anti-human IgG europium detection
Conditions: both partners purified

| binding result | Molecule |
| --- | --- |
| binds | B2 |

Target: T2, human GUCY2C ECD, purified (from …)
Assay: as above
Conditions: both partners purified

| binding result | Molecule |
| --- | --- |
| binds | B2 |
